The values that follow come from US20170129954A1 (PROTHENA BIOSCIENCES, published 2017).

Test [1] deals with T1, recombinant laminin 511 (UniProt O15230 36-3695; P07942 22-1786; P11047 34-1609).
T1 construct: also called laminin 10 (α5β1γ1)
Description: flow cytometry with pan-laminin antibody on CHO cells transfected with human MCAM.

For test [2], the target named is laminin α-4 (UniProt Q16363 25-1823). Description: FACS on mammalian cells displaying the mutant. The source says: Twenty point mutants based on the structure information and shotgun mutagenesis information were designed and generated.

Positions count from the first letter of the chain named. Numbers in names are those of the source.

laminin α-4, sequence (Q16363 25-1823): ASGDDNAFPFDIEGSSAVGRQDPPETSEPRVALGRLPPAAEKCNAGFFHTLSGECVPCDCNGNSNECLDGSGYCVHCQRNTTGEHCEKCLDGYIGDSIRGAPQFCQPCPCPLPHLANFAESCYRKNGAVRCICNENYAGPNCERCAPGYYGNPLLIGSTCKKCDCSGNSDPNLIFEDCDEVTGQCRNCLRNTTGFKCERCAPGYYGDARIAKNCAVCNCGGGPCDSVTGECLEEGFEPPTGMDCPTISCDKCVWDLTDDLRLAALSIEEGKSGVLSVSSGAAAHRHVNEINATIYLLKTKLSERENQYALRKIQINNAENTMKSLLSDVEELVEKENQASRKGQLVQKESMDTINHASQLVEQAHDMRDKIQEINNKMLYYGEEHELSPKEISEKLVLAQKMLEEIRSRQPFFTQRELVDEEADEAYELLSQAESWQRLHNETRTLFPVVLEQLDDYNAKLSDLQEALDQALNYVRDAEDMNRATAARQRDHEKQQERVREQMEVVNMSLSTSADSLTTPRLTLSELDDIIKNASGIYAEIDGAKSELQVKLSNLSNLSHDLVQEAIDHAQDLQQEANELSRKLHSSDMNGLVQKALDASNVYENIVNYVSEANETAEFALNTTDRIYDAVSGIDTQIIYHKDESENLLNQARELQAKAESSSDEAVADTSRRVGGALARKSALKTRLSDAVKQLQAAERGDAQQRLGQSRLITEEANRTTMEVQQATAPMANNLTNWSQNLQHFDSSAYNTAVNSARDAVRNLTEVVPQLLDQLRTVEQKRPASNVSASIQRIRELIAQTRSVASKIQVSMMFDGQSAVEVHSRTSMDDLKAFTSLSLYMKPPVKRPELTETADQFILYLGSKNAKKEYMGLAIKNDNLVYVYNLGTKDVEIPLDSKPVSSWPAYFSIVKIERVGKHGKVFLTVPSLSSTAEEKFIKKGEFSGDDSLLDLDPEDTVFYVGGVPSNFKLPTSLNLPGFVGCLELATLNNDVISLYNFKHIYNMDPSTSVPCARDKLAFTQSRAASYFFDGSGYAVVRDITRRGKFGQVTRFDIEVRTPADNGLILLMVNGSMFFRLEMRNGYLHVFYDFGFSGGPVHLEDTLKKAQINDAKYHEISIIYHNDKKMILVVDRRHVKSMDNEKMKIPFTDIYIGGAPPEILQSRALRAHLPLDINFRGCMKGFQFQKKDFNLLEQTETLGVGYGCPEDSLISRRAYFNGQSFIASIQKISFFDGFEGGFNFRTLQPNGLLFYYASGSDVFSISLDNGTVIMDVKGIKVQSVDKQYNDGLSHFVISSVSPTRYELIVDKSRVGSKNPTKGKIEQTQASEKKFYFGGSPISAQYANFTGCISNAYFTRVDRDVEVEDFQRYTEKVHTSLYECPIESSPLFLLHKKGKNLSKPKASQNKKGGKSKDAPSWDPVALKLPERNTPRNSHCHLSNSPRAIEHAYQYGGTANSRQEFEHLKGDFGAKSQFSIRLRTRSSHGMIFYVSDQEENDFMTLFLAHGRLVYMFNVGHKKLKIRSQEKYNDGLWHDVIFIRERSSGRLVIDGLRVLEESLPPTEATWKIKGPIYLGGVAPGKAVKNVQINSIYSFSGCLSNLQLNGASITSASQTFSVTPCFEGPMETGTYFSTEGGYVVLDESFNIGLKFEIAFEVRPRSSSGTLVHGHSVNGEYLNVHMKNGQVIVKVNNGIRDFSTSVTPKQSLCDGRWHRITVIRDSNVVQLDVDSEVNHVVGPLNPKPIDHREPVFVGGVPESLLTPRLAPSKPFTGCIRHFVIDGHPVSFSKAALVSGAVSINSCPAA

B1: human MCAM, full length, expressed on transfected cells (receptor)
chain: VPGEAEQPAPELVEVEVGSTALLKCGLSQSQGNLSHVDWFSVHKEKRTLIFRVRQGQGQSEPGEYEQRLSLQDRGATLALTQVTPQDERIFLCQGKRPRSQEYRIQLRVYKAPEEPNIQVNPLGIPVNSKEPEEVATCVGRNGYPIPQVIWYKNGRPLKEEKNRVHIQSSQTVESSGLYTLQSILKAQLVKEDKDAQFYCELNYRLPSGNHMKESREVTVPVFYPTEKVWLEVEPVGMLKEGDRVEIRCLADGNPPPHFSISKQNPSTREAEEETTNDNGVLVLEPARKEHSGRYECQAWNLDTMISLLSEPQELLVNYVSDVRVSPAAPERQEGSSLTLTCEAESSQDLEFQWLREETDQVLERGPVLQLHDLKREAGGGYRCVASVPSIPGLNRTQLVKLAIFGPPWMAFKERKVWVKENMVLNLSCEASGHPRPTISWNVNGTASEQDQDPQRVLSTLNVLVTPELLETGVECTASNDLGKNTSILFLELVNLTTLTPDSNTTTGLSTSTASPHTRANSTSTERKLPEPESRGVVIVAVIVCILVLAVLGAVLYFLYKKGKLPCRRSGKQEITLPPSRKTELVVEVKSDKLPEEMGLLQGSSGDKRAPGDQGEKYIDLRH
notes: also called CD146; MUC18
In the case of B1, the binding result in test [1] was “no binding (tested: 10 µg/ml)”.

B2: human MCAM I141A single mutant displayed on mammalian cells (receptor)
chain: B1 chain with I118A
On to B2, for which the binding result in test [2] is “no binding”.

B3: human MCAM Y318A single mutant displayed on mammalian cells (receptor)
chain: B1 chain with Y295A
notes: also called Y318A mutant
For B3, in test [2], the binding result was “no binding”.

B4: human MCAM D216A single mutant displayed on mammalian cells (receptor)
chain: B1 chain with D193A
Take B4: the binding result in test [2] was “no binding”.
